Test results taken from article PMC12207404, “Significance of the CTP-binding motif for the interactions of S. coelicolor ParB with DNA, chromosome segregation, and sporogenic hyphal growth” (Nucleic Acids Research, 2025).

Assays:
[1] = tested on: ScParB (Streptomyces coelicolor); assay: BLI; settings: no CTP, BLI: 100 mM Tris-HCl pH 8.0, 100 mM NaCl, 1 mM MgCl2, 0.005% Tween 20, 30 C, EMSA: 100 mM Tris-HCl pH 8.0, 100 mM NaCl, 10% glycerol, 1 mM DTT, 1 mM EDTA …
[2] = molecular target: T1, ScParB (S. coelicolor ParB) (Streptomyces coelicolor, UniProt Q9RFM2); assay: TNP-CTP fluorescence enhancement at […] nm; assay type: binding; settings: 1 μM protein, 5 μM TNP-CTP, no DNA, 1 mM MgCl2, pH 8.0, room temperature; labelled compound
T1 construct: full-length; N-terminal GST fusion from pGEX-6P-1_parB, GST removed with PreScission protease; expressed in E. coli BL21 pLysS; dimer

[3] = molecular target: the molecule itself; assay: cross-linking; glutaraldehyde (0.03%, 0.06% or 0.12%), 4 μM ScParB variant, 100 mM Tris-HCl pH 8.0, 100 mM NaCl, 1 mM MgCl2, 0.005% Tween 20, 30°C, 30 min; optionally 4 mM CTP or 4 μM 34-bp parS dsDNA; SDS-PAGE, Coomassie, percent of dimer and HMW complex of the lane's total signal
[4] = molecular target: the molecule itself; assay: two-hybrid; bacterial two-hybrid (BACTH): pUT18C and pKT25 derivatives cotransformed into E. coli BTH101; blue colonies on LB agar with X-gal and 0.5 mM IPTG, 30°C, and β-galactosidase activity (Miller units)

T1 sequence (Q9RFM2 entry or part of it): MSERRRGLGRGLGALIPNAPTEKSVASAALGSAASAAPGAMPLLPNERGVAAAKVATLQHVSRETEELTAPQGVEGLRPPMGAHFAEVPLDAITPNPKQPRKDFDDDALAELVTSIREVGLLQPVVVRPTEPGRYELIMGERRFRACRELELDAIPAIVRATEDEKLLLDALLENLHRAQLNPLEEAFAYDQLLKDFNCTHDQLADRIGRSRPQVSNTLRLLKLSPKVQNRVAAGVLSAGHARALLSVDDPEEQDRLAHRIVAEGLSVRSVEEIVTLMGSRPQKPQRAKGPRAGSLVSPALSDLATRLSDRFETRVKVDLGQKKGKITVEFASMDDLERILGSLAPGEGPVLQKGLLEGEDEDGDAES

Molecule: 300-bp parS, one-end biotin
- Kd [1]: 271 nM

Molecule: Nc1ccn([C@@H]2O[C@H](COP(=O)(O)OP(=O)(O)OP(=O)(O)O)[C@H]3OC4(O[C@H]32)C([N+](=O)[O-])=CC(=[N+]([O-])O)C=C4[N+](=O)[O-])c(=O)n1 (some centres unmarked) [TNP-CTP, 2′,3′-O-trinitrophenyl-cytidine-5′-triphosphate]
- relative fluorescence (RU) [2]: 1.16 ± 0.06 RU

Molecule: 300-bp parS, two-end biotin
- Kd ([1]; Discussion prints 176): 167 nM

B1: ScParB^R142A, purified recombinant (natural protein)
chain: MSERRRGLGRGLGALIPNAPTEKSVASAALGSAASAAPGAMPLLPNERGVAAAKVATLQHVSRETEELTAPQGVEGLRPPMGAHFAEVPLDAITPNPKQPRKDFDDDALAELVTSIREVGLLQPVVVRPTEPGRYELIMGEARFRACRELELDAIPAIVRATEDEKLLLDALLENLHRAQLNPLEEAFAYDQLLKDFNCTHDQLADRIGRSRPQVSNTLRLLKLSPKVQNRVAAGVLSAGHARALLSVDDPEEQDRLAHRIVAEGLSVRSVEEIVTLMGSRPQKPQRAKGPRAGSLVSPALSDLATRLSDRFETRVKVDLGQKKGKITVEFASMDDLERILGSLAPGEGPVLQKGLLEGEDEDGDAES
notes: source: E. coli BL21 (DE) pLysS, purified (Glutathione Sepharose 4B, cleaved with PreScission protease); not shown: GST, N-terminal, cleaved
- fold enhancement of dimerization against wild-type ScParB [3]: ≤ 3 fold

B2: ScParB^R142A, bacterial two-hybrid fusion (natural protein)
chain: B1 chain
notes: also called R142A-substituted variant; source: bacterial two-hybrid fusion (pUT18C and pKT25 derivatives), in E. coli BTH101
- fold enhancement of dimerization against wild-type ScParB [4]: ≤ 3 fold
